Source: patent US8465945B2, “Method for production and use of mite group 1 proteins” (Merck Patent GmbH, priority 1999, dated 2013)

How the values were obtained:
[1] = test system: IgE; conditions: cited from earlier work; for IgE reactivity relative to the native protein: literature reports (Chua et al 1992; Shoji et al 1996, 1997)
[2] = test system: IgE from mite-allergic or normal human sera; assay: ELISA, binding of IgE from human sera to coated Der f 1 proteins or mite extracts, detected with FcεR1α-biotin
[3] = test system: IgE from mite-allergic dog sera; assay: ELISA, binding of IgE from dog sera to coated Der f 1 proteins or mite extracts, detected with FcεR1α-biotin
Protocol: Native or recombinant Der f 1 proteins in 100 μl CBC buffer (50 mM sodium carbonate, pH 9.6) were coated onto wells (100 ng per well) of Immulon II microtiter plates (available from Dynex Technologies, Chantilly, Va.) by incubation at 4° C., covered, overnight. Excess fluid was removed and wells were blocked with 200 μl Assay Buffer (4% fetal calf serum (available from Summit Laboratories, Fort Collins, Colo.) in phosphate buffered saline (PBS, recipe in Sambrook, ibid.), plus 0.05% Tween-20 (available from Sigma, St. Louis, Mo.)) for one hour at room temperature. Plates were then washed for 4 cycles on an automatic plate washer (Ultrawash, available from Dynatech Laboratories) using PBS with 0.05% Tween-20. […] Control wells were treated identically except that no serum was added. Plates were then washed as described above. Biotinylated human IgE receptor alpha chain (FcεR1α-biotin) (100 μl of 1.3 ng/ml) prepared as described in U.S. Pat. No. 5,945,294, ibid., was added and incubated for one hour at room temperature. After this incubation, plates were washed as described above. Streptavidin-horseradish peroxidase conjugate (0.5 mg/ml, available from KPL Labs, Gaithersburg, Md.) was added at a 1:5000 dilution in Assay Buffer for one hour at room temperature, after which plates were washed as described above. TMB Peroxidase substrate system, 2 part (available from KPL Labs, #0-76-00), added at 100 μl per well, was used according to the manufacturer's directions. The color reaction was allowed to proceed until good color development was reached (about 10-15 min); then the reaction was stopped with 100 μl per well of 1 M phosphoric acid. Bound IgE was determined by measuring absorbance (Optical Density, or OD) at 450 nm (nanometers) using an ELISA plate reader (such as Spectramax”, Molecular Devices, Sunnyvale, Calif.). Background OD readings in the control wells were subtracted from all numbers. Results are reported in Tables 1, 2 and 3 as OD multiplied by 1000. OD numbers greater than 100 are considered to be positive for a reaction with IgE. P. pastoris-expressed proteins are denoted in the Tables as Pichia expressed proteins.

[4] = test system: IgE from pooled mite-allergic human sera; assay: Monoclonal Capture ELISA (Example 8B, Table 7); type: binding
Protocol: Assays were carried out as follows. A microtiter plate as described in Example 5 was coated overnight at 4° C. with 100 ng/well of anti-Der f 1 protein monoclonal antibody 6A8, denoted herein as anti-Der f 1 MAb 6A8, provided by Dr. Martin Chapman. The plate was washed in the manner described above. The following proteins were then added to wells, having been diluted in Assay Buffer in a 2-fold dilution series, from 0.75 to 50 ng/well: Heska native Derf1, P. pastoris-expressed PDerf1303b, and E. coli-expressed PDerf1303c. After incubation for 1 hour at room temperature, plates were washed as described in Example 5. Then 100 μl per well of a 1:1000 dilution in Assay Buffer of biotinylated anti-Der f 1 monoclonal antibody 4C1, also denoted anti-Der f 1 MAb 4C1, provided by Dr. Martin Chapman, was added for 1 hour at room temperature. Plates were washed, streptavidin-HRP conjugate was added, and plates were developed as described in Example 5.
B. The Der f 1 proteins described in Example 8B were reacted as described in Example 6 with a pool of serum samples collected from 16 mite-allergic human patients.

B1: S. cerevisiae-expressed Der p 1 proenzyme: Recombinant Der p 1 pro-form produced in S. cerevisiae, solubilized and renatured (Chua et al) (protein, UniProt P08176 19-320, looked up)
pro-form: RPSSIKTFEEYKKAFNKSYATFEDEEAARKNFLESVKYVQSNGGAINHLSDLSLDEFKNRFLMSAEAFEHLKTQFDLNAETNACSINGNAPAEIDLRQMRTVTPIRMQGGCGSCWAFSGVAATESAYLAYRNQSLDLAEQELVDCASQHGCHGDTIPRGIEYIQHNGVVQESYYRYVAREQSCRRPNAQRFGISNYCQIYPPNVNKIREALAQTHSAIAVIIGIKDLDAFRHYDGRTIIQRDNGYQPNYHAVNIVGYSNAQGVDYWIVRNSWDTNWGDNGYGYFAANIDLMMIEEYPYVVIL
modifications: pro-form S. cerevisiae-expressed
In the case of B1, the “sera reactive, of 11 sera reactive with the native protein” value ([1]; Chua et al) is given as 9 and the “IgE reactivity relative to the native protein” value [1] is given as “about 80%”.

B2: Chapman native Derf1: Native purified Der f 1 protein, purified in the laboratory of Martin Chapman (protein)
chain: TSACRINSVNVPSELDLRSLRTVTPIRMQGGCGSCWAFSGVAATESAYLAYRNTSLDLSEQELVDCASQHGCHGDTIPRGIEYIQQNGVVEERSYPYVAREQRCRRPNSQHYGISNYCQIYPPDVKQIREALTQTHTAIAVIIGIKDLRAFQHYDGRTIIQHDNGYQPNYHAVNIVGYGSTQGDDYWIVRNSWDTTWGDSGYGYFQAGNNLMMIEQYPYVVIM
For B2, the “OD, bound IgE” value ([2]; Assay Number 1, serum human 1916) was 17 OD multiplied by 1000, the “OD, bound IgE” value ([2]; Assay Number 1, serum human3848) was 2336 OD multiplied by 1000 and the “OD, bound IgE” value ([2]; Assay Number 1, serum human 3958) was 1261 OD multiplied by 1000. For the same molecule, the “OD, bound IgE” value ([2]; Assay Number 1, serum human 3960) was 1024 OD multiplied by 1000, the “OD, bound IgE” value ([2]; Assay Number 1, serum human 3961) was 326 OD multiplied by 1000 and the “OD, bound IgE” value ([2]; Assay Number 1, serum human 3987) was 1216 OD multiplied by 1000. The “OD, bound IgE” value ([2]; Assay Number 1, serum human 4289) was 287 OD multiplied by 1000, the “OD, bound IgE” value ([2]; Assay Number 1, serum human 4467) was 615 OD multiplied by 1000 and the “OD, bound IgE” value ([2]; Assay Number 1, serum human 5207) was 2669 OD multiplied by 1000. The “OD, bound IgE” value ([2]; Assay Number 1, serum human pool) was 1531 OD multiplied by 1000, the “OD, bound IgE” value ([2]; Assay Number 2, serum Heska human B) was 0 OD multiplied by 1000 and the “OD, bound IgE” value ([2]; Assay Number 2, serum Heska human C) was 0 OD multiplied by 1000. The “OD, bound IgE” value ([2]; Assay Number 2, serum Heska human D) was 0 OD multiplied by 1000, the “OD, bound IgE” value ([2]; Assay Number 2, serum Heska human E) was 2 OD multiplied by 1000 and the “OD, bound IgE” value ([2]; Assay Number 2, serum Heska human F) was 0 OD multiplied by 1000. The “OD, bound IgE” value ([2]; Assay Number 2, serum Heska human G) was 0 OD multiplied by 1000, the “OD, bound IgE” value ([2]; Assay Number 2, serum Heska human H) was 0 OD multiplied by 1000 and the “OD, bound IgE” value ([2]; Assay Number 2, serum Heska human I) was 0 OD multiplied by 1000. The “OD, bound IgE” value ([2]; Assay Number 2, serum Heska human J) was 0 OD multiplied by 1000, the “OD, bound IgE” value ([2]; Assay Number 2, serum Heska human K) was 0 OD multiplied by 1000 and the “OD, bound IgE” value ([2]; Assay Number 2, serum Heska human L) was 0 OD multiplied by 1000. For the same molecule, the “OD, bound IgE” value ([2]; Assay Number 2, serum Heska human M) was 0 OD multiplied by 1000, the “OD, bound IgE” value ([2]; Assay Number 2, serum Heska human N) was 373 OD multiplied by 1000 and the “OD, bound IgE” value ([2]; Assay Number 2, serum Heska human O) was 0 OD multiplied by 1000. For the same molecule, the “OD, bound IgE” value ([2]; Assay Number 2, serum Heska human P) was 0 OD multiplied by 1000, the “OD, bound IgE” value ([2]; Assay Number 2, serum Heska human Q) was 0 OD multiplied by 1000 and the “OD, bound IgE” value ([2]; Assay Number 2, serum Heska human R) was 0 OD multiplied by 1000. For the same molecule, the “OD, bound IgE” value ([2]; Assay Number 2, serum human 1916) was 8 OD multiplied by 1000, the “OD, bound IgE” value ([2]; Assay Number 2, serum human 3848) was 1726 OD multiplied by 1000 and the “OD, bound IgE” value ([2]; Assay Number 2, serum human 3958) was 822 OD multiplied by 1000. For the same molecule, the “OD, bound IgE” value ([2]; Assay Number 2, serum human 3960) was 522 OD multiplied by 1000, the “OD, bound IgE” value ([2]; Assay Number 2, serum human 3961) was 169 OD multiplied by 1000 and the “OD, bound IgE” value ([2]; Assay Number 2, serum human 3987) was 846 OD multiplied by 1000. The “OD, bound IgE” value ([2]; Assay Number 2, serum human 4289) was 173 OD multiplied by 1000, the “OD, bound IgE” value ([2]; Assay Number 2, serum human 4467) was 353 OD multiplied by 1000 and the “OD, bound IgE” value ([2]; Assay Number 2, serum human 5207) was 2171 OD multiplied by 1000. For the same molecule, the “OD, bound IgE” value ([2]; Assay Number 2, serum human pool) was 1236 OD multiplied by 1000, the “OD, bound IgE” value ([2]; Table 3, sera 429, PDerf1303b preparation number A166-26, PDerf1223b preparation 1000-7) was 152 OD multiplied by 1000 and the “OD, bound IgE” value ([2]; Table 3, sera 1916, PDerf1303b preparation number A166-26, PDerf1223b preparation 1000-7) was 14 OD multiplied by 1000. For the same molecule, the “OD, bound IgE” value ([2]; Table 3, sera 3848, PDerf1303b preparation number A166-26, PDerf1223b preparation 1000-7) was 1033 OD multiplied by 1000, the “OD, bound IgE” value ([2]; Table 3, sera 3958, PDerf1303b preparation number A166-26, PDerf1223b preparation 1000-7) was 1067 OD multiplied by 1000 and the “OD, bound IgE” value ([2]; Table 3, sera 3960, PDerf1303b preparation number A166-26, PDerf1223b preparation 1000-7) was 738 OD multiplied by 1000. For the same molecule, the “OD, bound IgE” value ([2]; Table 3, sera 3961, PDerf1303b preparation number A166-26, PDerf1223b preparation 1000-7) was 221 OD multiplied by 1000, the “OD, bound IgE” value ([2]; Table 3, sera 3987, PDerf1303b preparation number A166-26, PDerf1223b preparation 1000-7) was 865 OD multiplied by 1000 and the “OD, bound IgE” value ([2]; Table 3, sera 4467, PDerf1303b preparation number A166-26, PDerf1223b preparation 1000-7) was 489 OD multiplied by 1000. For the same molecule, the “OD, bound IgE” value ([2]; Table 3, sera 5207, PDerf1303b preparation number A166-26, PDerf1223b preparation 1000-7) was 1836 OD multiplied by 1000, the “OD, bound IgE” value ([2]; Table 3, sera human pool, PDerf1303b preparation number A166-26, PDerf1223b preparation 1000-7) was 1114 OD multiplied by 1000 and the “OD, bound IgE” value ([2]; Table 6, pool of sera from 16 mite-allergic human patients, 6.2 ng protein per well) was 17 OD. For the same molecule, the “OD, bound IgE” value ([2]; Table 6, pool of sera from 16 mite-allergic human patients, 12.5 ng protein per well) was 116 OD, the “OD, bound IgE” value ([2]; Table 6, pool of sera from 16 mite-allergic human patients, 25 ng protein per well) was 215 OD and the “OD, bound IgE” value ([2]; Table 6, pool of sera from 16 mite-allergic human patients, 50 ng protein per well) was 488 OD. For the same molecule, the “OD, bound IgE” value ([2]; Table 6, pool of sera from 16 mite-allergic human patients, 100 ng protein per well) was 581 OD, the “OD, bound IgE” value ([2]; Table 6, pool of sera from 16 mite-allergic human patients, 200 ng protein per well) was 584 OD and the “OD, bound IgE” value ([3]; Assay Number 1, serum dog pool) was 341 OD multiplied by 1000. For the same molecule, the “OD, bound IgE” value ([3]; Assay Number 1, serum dog-1) was 6 OD multiplied by 1000, the “OD, bound IgE” value ([3]; Assay Number 1, serum dog-2) was 1408 OD multiplied by 1000 and the “OD, bound IgE” value ([3]; Assay Number 1, serum dog-3) was 3125 OD multiplied by 1000. For the same molecule, the “OD, bound IgE” value ([3]; Assay Number 2, dog sera pool A 146) was 220 OD multiplied by 1000, the “OD, bound IgE” value ([3]; Assay Number 2, dog sera pool KS338) was 19 OD multiplied by 1000 and the “OD, Monoclonal Capture ELISA” value ([4]; 0.39 ng protein per well) was 1480 OD. For the same molecule, the “OD, Monoclonal Capture ELISA” value ([4]; 0.78 ng protein per well) was 2186 OD, the “OD, Monoclonal Capture ELISA” value ([4]; 1.55 ng protein per well) was 2447 OD and the “OD, Monoclonal Capture ELISA” value ([4]; 3.1 ng protein per well) was 2597 OD. The “OD, Monoclonal Capture ELISA” value ([4]; 6.25 ng protein per well) was 2620 OD, the “OD, Monoclonal Capture ELISA” value ([4]; 12.5 ng protein per well) was 2483 OD and the “OD, Monoclonal Capture ELISA” value ([4]; 25 ng protein per well) was 2249 OD.

B3: Der f 1 pro-form: Recombinant Der f 1 pro-form from baculovirus expression system in insect cells (Shoji et al) (protein, listed as Dermatophagoides farinae)
chain: RPASIKTFEEFKKAFNKNYATVEEEEVARKNFLESLKYVEANKGAINHLSDLSLDEFKNRYLMSAEAFEQLKTQFDLNAETSACRINSVNVPSELDLRSLRTVTPIRMQGGCGSCWAFSGVAATESAYLAYRNTSLDLSEQELVDCASQHGCHGDTIPRGIEYIQQNGVVEERSYPYVAREQRCRRPNSQHYGISNYCQIYPPDVKQIREALTQTHTAIAVIIGIKDLRAFQHYDGRTIIQHDNGYQPNYHAVNIVGYGSTQGDDYWIVRNSWDTTWGDSGYGYFQAGNNLMMIEQYPYVVIM
For B3, the “IgE reactivity relative to the native protein” value [1] is given as 20%.
